Experimental findings from publication PMC6430648 are described below.

One data set concerns the target PCSK9 (UniProt Q8NBP7 153-692). Description: SPR.
The next data set addresses IL-6 (UniProt P05231 30-212). As to the kind of experiment: SPR. A general note: In SPR one partner is held on a chip, and binding of the other changes the refractive index at the surface.

Chain of IL-6 (P05231 30-212): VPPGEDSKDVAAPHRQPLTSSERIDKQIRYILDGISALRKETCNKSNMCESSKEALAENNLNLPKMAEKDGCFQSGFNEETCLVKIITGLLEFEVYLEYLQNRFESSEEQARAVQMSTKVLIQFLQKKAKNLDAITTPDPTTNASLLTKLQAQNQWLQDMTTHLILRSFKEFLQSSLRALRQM
Chain of PCSK9 (Q8NBP7 153-692): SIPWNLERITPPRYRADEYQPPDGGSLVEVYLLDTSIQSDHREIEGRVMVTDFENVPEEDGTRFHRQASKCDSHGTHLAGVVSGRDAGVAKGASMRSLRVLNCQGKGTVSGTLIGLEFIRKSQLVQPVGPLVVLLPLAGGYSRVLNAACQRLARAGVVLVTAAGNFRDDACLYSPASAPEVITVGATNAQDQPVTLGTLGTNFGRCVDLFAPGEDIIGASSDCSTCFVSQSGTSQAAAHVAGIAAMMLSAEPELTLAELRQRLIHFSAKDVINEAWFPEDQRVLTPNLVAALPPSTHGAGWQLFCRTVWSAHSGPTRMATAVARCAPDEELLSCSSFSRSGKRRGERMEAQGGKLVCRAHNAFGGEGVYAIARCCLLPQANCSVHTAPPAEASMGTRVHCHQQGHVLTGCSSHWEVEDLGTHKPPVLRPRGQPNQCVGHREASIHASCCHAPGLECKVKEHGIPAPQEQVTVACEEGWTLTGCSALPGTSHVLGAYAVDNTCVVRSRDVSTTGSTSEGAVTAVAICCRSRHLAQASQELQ

B1: PCSK9 Charged-2 (ssDNA)
DNA: CGAATCAGATTGGACCAGTTTCATCCCTTTTTGCCACCCCTTTGTTGTCCACCCCCATGTCCTGAGTCCAGATGTAGGTAG
modifications: none (no functionalized codon)
For B1, in the data set with PCSK9, the binding signal was found to be 11 %Rmax.

B2: IL-6 Unfunctionalized-1 (ssDNA)
DNA: CTCGGATGAACCTGGACTTTATTGCACTGGCTGTACTTTTCGTATCCATGGTCATCTTTTCTAGCATCGAAGCCAAGATTC
In the data set with IL-6, B2 registered a binding signal of 4 %Rmax.

B3: IL-6 Unfunctionalized-4 (ssDNA)
DNA: CTCGGATGAACCTGGACTTAATGATGCTCATGGTGCTCTTCATCACCATCTTCGTTCCATCCTGCATCGAAGCCAAGATTC
Regarding B3, in the data set with IL-6, the binding signal turned out to be 4 %Rmax.

B4: PCSK9 Unfunctionalized-3 (ssDNA)
DNA: CGAATCAGATTGGACCAGCACCCTCCGTCTCCGCTCCCCTCGTCTTGTTGTTTCCCTTTCCCTGAGTCCAGATGTAGGTAG
In the data set with PCSK9, B4 came in with a binding signal of 34 %Rmax.

B5: IL-6 Unfunctionalized-2 (ssDNA)
DNA: CTCGGATGAACCTGGACTTTACTGCGGCGCCAGCCGTGCCCATCCTTTCTTCATCCGTGCCCAGCATCGAAGCCAAGATTC
B5 had a binding signal with IL-6 of 3 %Rmax.

B6: IL-6 Unfunctionalized-5 (ssDNA)
DNA: CTCGGATGAACCTGGACTTCTTCATTGCGCTGGTGCCTGCCATCCTTGTTCCATCCCCTTTGCGCATCGAAGCCAAGATTC
On to B6, for which the binding signal in the data set with IL-6 worked out at 4 %Rmax.

B7: IL-6 Unfunctionalized-3 (ssDNA)
DNA: CTCGGATGAACCTGGACTCTGTTTTTACTACCGCGCTAGCCGCCTCATCCGTTTTAGCGCCATGCATCGAAGCCAAGATTC
B7: in the data set with IL-6, the binding signal is 3 %Rmax.

B8: PCSK9 Unfunctionalized-1 (ssDNA)
DNA: CGAATCAGATTGGACCAGTTACCGCCCTCTCCCTTTTGTCCCCTCCGTTGTTTCTCTTTCCCTGAGTCCAGATGTAGGTAG
B8 showed a binding signal in the data set with PCSK9 of 30 %Rmax.
